Measured values from patent publication US20220363770A1 (Amgen, published 2022).

T1: human PAC1 receptor extracellular domain (ECD) (human, UniProt P41586 24-153)
T1 construct: also called PAC1 receptor ECD; PAC1 ECD
T1 sequence: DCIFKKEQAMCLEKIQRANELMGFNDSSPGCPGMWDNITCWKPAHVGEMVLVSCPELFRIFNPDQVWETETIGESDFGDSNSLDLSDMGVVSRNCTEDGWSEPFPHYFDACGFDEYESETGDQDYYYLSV


Tests used:
[1] = molecular target: T1, human PAC1 receptor extracellular …; test: yeast-displayed Fab, FACS, 10 nM PAC1 receptor ECD
[2] = molecular target: T2, human CGRP receptor extracellular domain (ECD) (human, UniProt Q16602 23-138; O60894 27-117); test: yeast-displayed Fab, FACS, 1 nM human CGRP receptor ECD
T2 construct: also called CGRP receptor ECD; human CGRP receptor ECD
T2 sequence (Q16602 23-138 limits assumed, chain 1 of 2): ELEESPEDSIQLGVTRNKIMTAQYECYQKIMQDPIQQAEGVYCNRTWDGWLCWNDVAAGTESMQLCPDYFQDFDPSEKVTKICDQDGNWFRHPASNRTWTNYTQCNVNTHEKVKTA
T2 sequence (O60894 27-117 limits assumed, chain 2 of 2): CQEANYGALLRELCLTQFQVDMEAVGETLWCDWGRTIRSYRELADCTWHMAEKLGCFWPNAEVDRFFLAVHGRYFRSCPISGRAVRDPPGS

[3] = molecular target: T2, human CGRP receptor extracellular …; test: yeast-displayed Fab, FACS, 10 nM human CGRP receptor ECD
[4] = molecular target: T3, cynomolgus monkey CGRP receptor (cynomolgus monkey, UniProt A0A2K5VQ71 34-472); test: yeast-displayed Fab, FACS, detergent-solubilized lysate of cynomolgus CGRP receptor/HEK cells vs blank cells
T3 construct: whole, on cells; Presented as detergent-solubilized lysate of HEK cells expressing the cynomolgus receptor; also called Cyno CGRP Receptor; Cynomolgus Monkey CGRP Receptor/HEK detergent-solubilized cell lysate
T3 sequence (A0A2K5VQ71 entry or part of it): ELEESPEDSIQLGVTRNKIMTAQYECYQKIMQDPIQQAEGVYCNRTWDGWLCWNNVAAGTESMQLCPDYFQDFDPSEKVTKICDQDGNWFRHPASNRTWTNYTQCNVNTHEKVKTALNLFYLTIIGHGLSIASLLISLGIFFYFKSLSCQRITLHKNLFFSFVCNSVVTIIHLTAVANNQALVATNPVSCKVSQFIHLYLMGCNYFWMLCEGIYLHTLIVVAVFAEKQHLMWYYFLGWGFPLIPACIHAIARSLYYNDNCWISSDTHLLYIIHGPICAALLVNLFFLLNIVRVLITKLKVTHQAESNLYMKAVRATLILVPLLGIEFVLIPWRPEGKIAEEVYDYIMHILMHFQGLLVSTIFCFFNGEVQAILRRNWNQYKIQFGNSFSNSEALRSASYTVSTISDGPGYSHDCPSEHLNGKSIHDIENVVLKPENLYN

[5] = molecular target: T4, human CGRP receptor (human CRLR / human RAMP1 heterodimer) (human, UniProt Q16602 23-461; O60894 27-148); test: yeast-displayed Fab, FACS, detergent-solubilized lysate of human CGRP receptor-expressing cells vs blank cells
T4 construct: Full-length receptor: endogenous on SK-N-MC (HTB-10) cells in the cAMP assay; also called hCGRP receptor on SK-N-MC (HTB-10) cells; Human CGRP Receptor/AMID detergent-solubilized cell lysate
T4 sequence (Q16602 23-461 limits assumed, chain 1 of 2): as the sequence (A0A2K5VQ71 entry or part of it) above, with N55D, V431L counted along it
T4 sequence (O60894 27-148 limits assumed, chain 2 of 2): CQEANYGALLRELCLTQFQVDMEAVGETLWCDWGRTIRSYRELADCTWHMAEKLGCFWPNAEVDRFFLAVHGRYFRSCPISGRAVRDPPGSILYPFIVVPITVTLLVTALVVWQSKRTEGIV

[6] = molecular target: T5, soluble CGRP receptor (extracellular domains of human CRLR and human RAMP1) (human, UniProt Q16602 23-133; O60894 26-117); test: SPR (Biacore T200), antibody captured by goat anti-human Fc, soluble CGRP receptor as analyte, 1:1 model
T5 construct: the tag and the thrombin site are not described; also called soluble human CGRP receptor; CGRP receptor ECD
T5 sequence (Q16602 23-133, chain 1 of 2): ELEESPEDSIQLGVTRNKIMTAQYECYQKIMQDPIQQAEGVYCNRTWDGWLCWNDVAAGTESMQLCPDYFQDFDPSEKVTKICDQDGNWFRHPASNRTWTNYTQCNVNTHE
T5 sequence (O60894 26-117, chain 2 of 2): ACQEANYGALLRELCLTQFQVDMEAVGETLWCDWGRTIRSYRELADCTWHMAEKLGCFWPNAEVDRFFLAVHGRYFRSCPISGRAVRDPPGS

| Mutant vs. 4E4.2 Parent B/D Ratio [1] [fold] | Normalized Binding Signal/Display Signal (B/D) [1] [ratio] | Mutant vs. 4E4.2 Parent B/D Ratio [2] [fold] | Normalized Binding Signal/Display Signal (B/D) [2] [ratio] | Mutant vs. 4E4.2 Parent B/D Ratio [3] [fold] | Normalized Binding Signal/Display Signal (B/D) [3] [ratio] | Cyno CGRP Receptor/Blank Cells Specific Binding [4] [ratio] | Mutant vs. 4E4.2 Parent Specific Binding Ratio [4] [fold] | Human CGRP Receptor/Blank Cells Specific Binding [5] [ratio] | Mutant vs. 4E4.2 Parent Specific Binding Ratio [5] [fold] | Kd [6] [nM] | koff [6] [s⁻¹] | kon [6] [M⁻¹ s⁻¹] | Binder |
| --- | --- | --- | --- | --- | --- | --- | --- | --- | --- | --- | --- | --- | --- |
| 1.5 | 0.16 | 11 | 1.36 | 22 | 3.38 | 5.3 | 2.8 | 9.5 | 1.2 |  |  |  | anti-CGRP receptor variant 11, yeast-displayed Fab (Fab, V domains shown, also called Variant Ab ID 11) VH: QVQLVESGGGVVQPGRSLRLSCAASGFWFDTFGMHWVRQAPGKGLEWVAVISFAGEDTHYVDSVKGRFTISRDNSKNTLFLQMNSLRAEDTAVYYCARDRLNYYESYGYYGYHYYGMAVWGQGTTVTVSS VL: QSVLTQPPSVSAAPGQKVTISCSGSRSNIGRYSVSWYQQLPGTAPKLLIYENMFRPRGIPDRFSGSKSGTSATLGITGLQTGDEADYYCGTWDYRMQAVVFGGGTKLTVLG |
| 0.7 | 0.08 | 1 | 0.12 | 2.2 | 0.33 | 2.2 | 1.1 | 13.5 | 1.7 |  |  |  | anti-CGRP receptor variant 14, yeast-displayed Fab (Fab, V domains shown, also called Variant Ab ID 14) VH: QVQLVESGGGVVQPGRSLRLSCAASGFTFSSFGMHWVRQAPGKGLEWVAVISFDGSIKYSVDSVKGRFTISRDNSKNTLFLQMNSLRAEDTAVYYCARDRLNYYESSGYYHYKYYGMAVWGQGTTVTVSS VL: QSVLTQPPSVSAAPGQKVTISCSGSSSNIGNNYVSWYQQLPGTAPKLLIYDNNKRPSGIPDRFSGSKSGTSATLGITGLQTGDEADYYCGTWDSWHRVVTFGGGTKLTVLG |
|  |  |  |  |  |  |  |  |  |  | 180 | 0.0026 | 15000 | 4E4 heavy chain D54A single-point alanine variant antibody (antibody, V domains shown, Recombinantly expressed as a monoclonal antibody) VH: QVQLVESGGGVVQPGRSLRLSCAASGFTFSSFGMHWVRQAPGKGLEWVAVISFAGSIKYSVDSVKGRFTISRDNSKNTLFLQMNSLRAEDTAVYYCARDRLNYYDSSGYYHYKYYGMAVWGQGTTVTVSS VL: QSVLTQPPSVSAAPGQKVTISCSGSSSNIGNNYVSWYQQLPGTAPKLLIYDNNKRPSGIPDRFSGSKSGTSTTLGITGLQTGDEADYYCGTWDSRLSAVVFGGGTKLTVLG |
|  |  |  |  |  |  |  |  |  |  | 28 | 0.00054 | 20000 | wild-type 4E4 anti-CGRP receptor monoclonal antibody (antibody, human IgG2, lambda, V domains shown, also called WT; 4E4 Ab) VH: QVQLVESGGGVVQPGRSLRLSCAASGFTFSSFGMHWVRQAPGKGLEWVAVISFDGSIKYSVDSVKGRFTISRDNSKNTLFLQMNSLRAEDTAVYYCARDRLNYYDSSGYYHYKYYGMAVWGQGTTVTVSS VL: QSVLTQPPSVSAAPGQKVTISCSGSSSNIGNNYVSWYQQLPGTAPKLLIYDNNKRPSGIPDRFSGSKSGTSTTLGITGLQTGDEADYYCGTWDSRLSAVVFGGGTKLTVLG |
| 0.9 | 0.1 | 1.3 | 0.16 | 2.7 | 0.42 | 4.2 | 2.2 | 11.9 | 1.5 |  |  |  | anti-CGRP receptor variant 15, yeast-displayed Fab (Fab, V domains shown, also called Variant Ab ID 15) VH: QVQLVESGGGVVQPGRSLRLSCAASGFTFSSFGMHWVRQAPGKGLEWVAVISFDGSIKYSVDSVKGRFTISRDNSKNTLFLQMNSLRAEDTAVYYCARDRLNYYESSGYYHYKYYGMAVWGQGTTVTVSS VL: QSVLTQPPSVSAAPGQKVTISCSGSSSNIGNNYVSWYQQLPGTAPKLLIYDNNKRPSGIPDRFSGSKSGTSATLGITGLQTGDEADYYCGTWDWWRKAVIFGGGTKLTVLG |
